± gives the standard deviation of the averaged measurements.
B1: library; a variant is named by its letters at N, in order (parent)
chain: GCUGUCACCGGUGUAUUACCCUAGUGGUCGACCGGUCUGAUGAGUCUNNNNNNAGACGAAACAGC

How the values were obtained:
[1] = variants of: B1; assay: normalized RNA/DNA level with ligand (relative to sTRSVctl = 100) (log10 (% of sTRSVctl)); ligand: hypoxanthine (xanthine aptamer); higher = less ribozyme self-cleavage, higher mRNA level; conditions: ligand concentration (+) RNA-Seq: 5 mM, HEK293T, reporter: mCherry (pCS4076), ligand present: yes
How it was run: (§1)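 Total RNA, extracted with EDTA 72 h after HEK293T cells were transfected with 4 µg per 6-well well of reporter-linked ribozyme switch library plasmids, was reverse-transcribed, amplified, barcoded and sequenced. Ligand, if used, was added 1 h before transfection. RNA level was derived from RNA reads divided by DNA reads and normalized to a spiked-in non-cleaving sequence or to the top sequences. This was multiplied by 100 and log10-transformed, with the top set of 25 sequences and a ≥100 DNA read minimum.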

[2] = variants of: B1; assay: normalized RNA/DNA level without ligand (relative to sTRSVctl = 100) (log10 (% of sTRSVctl)); ligand: hypoxanthine (xanthine aptamer); higher = less ribozyme self-cleavage, higher mRNA level; conditions: HEK293T, reporter: mCherry (pCS4076), ligand present: no
How it was run: as §1

Variant	normalized RNA/DNA level with ligand (log10) [1]	normalized RNA/DNA level without ligand (log10) [2]
CCCCAU	1.93 ± 0.036	1.87 ± 0.046
CCCCAG	1.84 ± 0.062	1.77 ± 0.047
ACGCUA	1.948 ± 0.0038	1.69 ± 0.063
ACGCUU	1.907 ± 0.016	1.5 ± 0.022
ACGCUC	2.02 ± 0.048	1.908 ± 0.0022
CCCGGC	2 ± 0.041	1.859 ± 0.0099
CCCGGU	2 ± 0.069	1.92 ± 0.071
CCGGGG	1.83 ± 0.057	1.34 ± 0.084
CCGGGU	2.04 ± 0.054	1.93 ± 0.15
ACCGUG	1.8625 ± 0.00016	1.45 ± 0.051
ACCGUU	1.91 ± 0.06	1.835 ± 0.011
ACCGUC	1.982 ± 0.0058	2 ± 0.026
GCCGAC	1.891 ± 0.0051	1.55 ± 0.032
UCCCCG	1.88 ± 0.025	1.5 ± 0.024
UCCCCC	1.9 ± 0.075	1.782 ± 0.016
UCCCCU	1.996 ± 0.014	1.9 ± 0.023
GCCUGC	1.977 ± 0.012	1.86 ± 0.045
GCCUGG	1.94 ± 0.062	1.5 ± 0.017
GCCUGU	1.93 ± 0.024	1.83 ± 0.015

Variant	normalized RNA/DNA level with ligand (log10) [1]	normalized RNA/DNA level without ligand (log10) [2]
ACCUCG	1.928 ± 0.017	1.62 ± 0.062
ACCUCU	1.99 ± 0.054	1.926 ± 0.01
ACCUCC	1.99 ± 0.03	1.919 ± 0.018
ACCUCA	1.904 ± 0.0082	1.89 ± 0.027
CCCUUG	1.984 ± 0.013	1.84 ± 0.045
CCCUUU	2 ± 0.059	1.938 ± 0.0021
GCGAGC	1.81 ± 0.034	1.37 ± 0.079
UCCCAU	1.93 ± 0.032	1.829 ± 0.0082
CCGGUA	1.93 ± 0.034	1.863 ± 0.0044
CCGGUC	1.96 ± 0.039	1.95 ± 0.029
GCGACU	1.92 ± 0.026	1.755 ± 0.013
ACCCAG	1.83 ± 0.03	1.48 ± 0.044
ACCCAU	1.93 ± 0.026	1.79 ± 0.051
GCCCGU	1.962 ± 0.019	1.83 ± 0.044
GCCCGA	2.012 ± 0.015	1.719 ± 0.0081
UCGGAC	1.981 ± 0.002	1.877 ± 0.012
UCGGAA	1.84 ± 0.043	1.31 ± 0.017
UCGGAU	1.86 ± 0.036	1.3978 ± 0.00098
GCCCAU	1.929 ± 0.0057	1.866 ± 0.00087

Variant	normalized RNA/DNA level with ligand (log10) [1]	normalized RNA/DNA level without ligand (log10) [2]
UCGACU	1.93 ± 0.056	1.72 ± 0.035
UCGACA	1.93 ± 0.023	1.72 ± 0.063
UCGACG	1.94 ± 0.021	1.704 ± 0.007
UCGACC	1.976 ± 0.015	1.955 ± 0.011
ACCCGU	1.94 ± 0.024	1.82 ± 0.048
ACCCGC	1.91 ± 0.02	1.815 ± 0.016
ACCCGA	1.95 ± 0.028	1.755 ± 0.0068
ACGGUC	1.94 ± 0.039	1.87 ± 0.0091
ACGGUG	1.8673 ± 0.00056	1.24 ± 0.062
CCGAUA	1.92 ± 0.049	1.72 ± 0.059
CCGAUC	1.99 ± 0.037	1.87 ± 0.056
CCGAUG	1.82 ± 0.064	1.42 ± 0.049
UCCGCU	1.94 ± 0.055	1.944 ± 0.0031
UCCGCC	1.992 ± 0.013	1.773 ± 0.015
UCCGCA	1.9294 ± 0.00025	1.807 ± 0.014
ACGCCA	1.95 ± 0.045	1.81 ± 0.019
ACGCCG	1.873 ± 0.011	1.4 ± 0.032
ACGCCC	1.94 ± 0.026	1.875 ± 0.0043
ACGCCU	1.945 ± 0.008	1.63 ± 0.068

From the supplement of paper PMC6757056
